Reference: publication PMC2930068 (Journal of molecular biology, 2010)
“And” between values parts separate entries of the source, which are not always exact repeats. Equal values may be shown once.

B1: phosphorylated-Tyr701 STAT1 (1-712), N-terminal 6-histidine tag (natural protein, UniProt P42224-2 1-712, looked up)
chain: MSQWYELQQLDSKFLEQVHQLYDDSFPMEIRQYLAQWLEKQDWEHAANDVSFATIRFHDLLSQLDDQYSRFSLENNFLLQHNIRKSKRNLQDNFQEDPIQMSMIIYSCLKEERKILENAQRFNQAQSGNIQSTVMLDKQKELDSKVRNVKDKVMCIEHEIKSLEDLQDEYDFKCKTLQNREHETNGVAKSDQKQEQLLLKKMYLMLDNKRKEVVHKIIELLNVTELTQNALINDELVEWKRRQQSACIGGPPNACLDQLQNWFTIVAESLQQVRQQLKKLEELEQKYTYEHDPITKNKQVLWDRTFSLFQQLIQSSFVVERQPCMPTHPQRPLVLKTGVQFTVKLRLLVKLQELNYNLKVKVLFDKDVNERNTVKGFRKFNILGTHTKVMNMEESTNGSLAAEFRHLQLKEQKNAGTRTNEGPLIVTEELHSLSFETQLCQPGLVIDLETTSLPVVVISNVSQLPSGWASILWYNMLVAEPRNLSFFLTPPCARWAQLSEVLSWQFSSVTKRGLNVDQLNMLGEKLLGPNASPDGLIPWTRFCKENINDKNFPFWLWIESILELIKKHLLPLWNDGCIMGFISKERERALLKDQQPGTFLLRFSESSREGAITFTWVERSQNGGEPDFHAVEPYTKKELSAVTFPDIIRNYKVMAAENIPENPLKYLYPNIDKDHAFGKYYSRPKEAPEPMELDGPKGTGYIKTELISVSEV
modifications: phosphotyrosine at 701; alkylated with N-ethyl-maleimide

Tests used:
[1] = molecular target: B1; assay: SPR
AUC = molecular target: the molecule itself; assay: AUC
[2] = molecular target: T1, pSTAT1 (1-712) F77A / L78A (UniProt P42224-2 1-712, F77A | L78A, phosphotyrosine at 701); assay: SPR
T1 sequence (looked up): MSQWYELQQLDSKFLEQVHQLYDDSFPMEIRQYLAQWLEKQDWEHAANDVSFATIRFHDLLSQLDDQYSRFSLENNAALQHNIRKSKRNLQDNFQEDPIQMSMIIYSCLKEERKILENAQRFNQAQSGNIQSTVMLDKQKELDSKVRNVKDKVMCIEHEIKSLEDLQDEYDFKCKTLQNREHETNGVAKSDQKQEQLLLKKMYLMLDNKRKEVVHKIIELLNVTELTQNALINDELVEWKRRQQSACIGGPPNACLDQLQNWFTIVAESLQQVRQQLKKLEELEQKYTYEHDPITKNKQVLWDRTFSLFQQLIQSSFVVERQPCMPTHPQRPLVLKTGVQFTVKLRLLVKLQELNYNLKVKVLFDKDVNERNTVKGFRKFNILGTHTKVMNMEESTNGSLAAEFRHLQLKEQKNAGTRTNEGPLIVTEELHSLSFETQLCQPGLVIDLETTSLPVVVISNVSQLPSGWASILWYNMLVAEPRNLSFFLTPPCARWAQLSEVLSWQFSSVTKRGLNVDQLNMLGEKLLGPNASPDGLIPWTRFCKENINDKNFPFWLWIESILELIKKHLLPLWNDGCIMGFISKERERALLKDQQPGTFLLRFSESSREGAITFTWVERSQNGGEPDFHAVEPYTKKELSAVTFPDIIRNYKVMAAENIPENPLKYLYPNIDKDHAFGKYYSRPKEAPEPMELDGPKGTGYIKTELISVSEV

Binder | Kd [1] | koff [1] | kon [1] | stoichiometry N (AUC) | other results
GST-importin α5 (res. 1-512) (domain or fragment) not shown | 166 ± 17 nM | 0.0204 s⁻¹ | 124000 M⁻¹ s⁻¹ | – | –
unphosphorylated STAT1 (1-712), N-terminal 6-histidine tag (natural protein, UniProt P42224-2 1-712, looked up) MSQWYELQQLDSKFLEQVHQLYDDSFPMEIRQYLAQWLEKQDWEHAANDVSFATIRFHDLLSQLDDQYSRFSLENNFLLQHNIRKSKRNLQDNFQEDPIQMSMIIYSCLKEERKILENAQRFNQAQSGNIQSTVMLDKQKELDSKVRNVKDKVMCIEHEIKSLEDLQDEYDFKCKTLQNREHETNGVAKSDQKQEQLLLKKMYLMLDNKRKEVVHKIIELLNVTELTQNALINDELVEWKRRQQSACIGGPPNACLDQLQNWFTIVAESLQQVRQQLKKLEELEQKYTYEHDPITKNKQVLWDRTFSLFQQLIQSSFVVERQPCMPTHPQRPLVLKTGVQFTVKLRLLVKLQELNYNLKVKVLFDKDVNERNTVKGFRKFNILGTHTKVMNMEESTNGSLAAEFRHLQLKEQKNAGTRTNEGPLIVTEELHSLSFETQLCQPGLVIDLETTSLPVVVISNVSQLPSGWASILWYNMLVAEPRNLSFFLTPPCARWAQLSEVLSWQFSSVTKRGLNVDQLNMLGEKLLGPNASPDGLIPWTRFCKENINDKNFPFWLWIESILELIKKHLLPLWNDGCIMGFISKERERALLKDQQPGTFLLRFSESSREGAITFTWVERSQNGGEPDFHAVEPYTKKELSAVTFPDIIRNYKVMAAENIPENPLKYLYPNIDKDHAFGKYYSRPKEAPEPMELDGPKGTGYIKTELISVSEV | – | – | – | 2 | –
B1 | – | – | – | 2 and ~4 | –
GST-importin α5 (res. 1-538) (natural protein) not shown | – | – | – | – | Kd [2]: 112 ± 22 nM; koff [2]: 0.0113 s⁻¹; kon [2]: 98100 M⁻¹ s⁻¹
GST-importin α5 (res. 1-504) (domain or fragment) not shown | 247 ± 27 nM | 0.0243 s⁻¹ | 98300 M⁻¹ s⁻¹ | – | –
GST-ΔIBB-importin α5 (res. 79-538) (domain or fragment) not shown | 153 ± 16 nM | 0.0218 s⁻¹ | 144000 M⁻¹ s⁻¹ | – | –
